pKd: −log10 of the molar value.
Assays:
[1] = molecular target: calcineurin, WT CN (CNA_(1–370):CNB_(1–170)) (human) (UniProt Q08209)
[2] = molecular target: calcineurin, WT CN (CNA_(1–370):CNB_(1–170)) (human) (UniProt Q08209); assay: ITC; NHE1 or variants (30–50 µM, syringe) titrated into CN (5–10 µM, cell), 25 °C, 20 mM Tris–HCl pH 7.5, 100 mM NaCl, 1 mM CaCl2, 0.5 mM TCEP; single site-binding model
[3] = molecular target: CNA alone (alpha isoform: H27-D348; two C-terminal Asp residues added) (human) (UniProt Q08209)
[4] = molecular target: CNAA variant (CNA: H155A/Y159A, CNB), crystallisation construct CNA M1-N370 H155A Y159A, CNB 16–170 (human) (UniProt Q08209)

Chain of UniProt Q08209 (Q08209 other isoform, or with tags, fused parts or gaps): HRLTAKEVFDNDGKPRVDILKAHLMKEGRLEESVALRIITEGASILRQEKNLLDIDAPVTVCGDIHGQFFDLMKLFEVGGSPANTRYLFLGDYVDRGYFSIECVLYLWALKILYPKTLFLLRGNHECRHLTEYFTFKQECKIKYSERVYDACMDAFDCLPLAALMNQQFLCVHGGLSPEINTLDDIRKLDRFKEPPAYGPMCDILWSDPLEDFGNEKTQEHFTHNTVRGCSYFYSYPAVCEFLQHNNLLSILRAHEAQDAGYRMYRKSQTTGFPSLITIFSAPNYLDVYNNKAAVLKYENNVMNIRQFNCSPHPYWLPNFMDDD

Question: For “NHE1ct P782A (NHE1 I680-Q815) (from UniProt P19634 680-815) (domain or fragment)”, which apparent in vitro dephosphorylation rate k (dephos) of pT779 of ERK2-phosphorylated NHE1ct variant by CN (NMR time course) [1] is on record?
Answer: 0.028 h^-1

Question: What about the pKd [2] of the same substance?
Answer: 7.32

Question: And the dH [2]?
Answer: -2.8 kcal/mol

Question: For “NHE1ct WT (human NHE1 I680-Q815) (from UniProt P19634 680-815) (domain or fragment)”, which apparent in vitro dephosphorylation rate k (dephos) of pT779 of ERK2-phosphorylated NHE1ct by CNA alone (NMR time course) [3] is on record?
Answer: 0.347 h^-1

Question: What about the apparent in vitro dephosphorylation rate k (dephos) of pT779 of ERK2-phosphorylated NHE1ct by CNAA (NMR time course; 20:1 NHE1ct:CN, rate normalized using wt-NHE1ct) [4] of the same substance?
Answer: 0.06 h^-1

Question: And the pKd [2]?
Answer: 7.23

Question: What about the dH [2] of the same substance?
Answer: -12 kcal/mol

Question: What about the stoichiometry N [2] of the same substance?
Answer: 1

Question: “NHE1ct_(ATAP) (NHE1 I680-Q815, L684A, V686A) (from UniProt P19634 680-815) (domain or fragment)” was tested. Which apparent in vitro dephosphorylation rate k (dephos) of pT779 of ERK2-phosphorylated NHE1ct variant by CN (NMR time course) [1] did it give?
Answer: 0.642 h^-1

Question: And the pKd [2]?
Answer: 5.32

Question: And the dH [2]?
Answer: -4.5 kcal/mol

Question: Which apparent in vitro dephosphorylation rate k (dephos) of pT779 of ERK2-phosphorylated NHE1ct variant by CN (NMR time course) [1] does the source give for “NHE1ct_(ATAP/AVATAA) (NHE1 I680-Q815, L684A, V686A, P715A, I717A, I719A, D720A) (from UniProt P19634 680-815) (domain or fragment)” here?
Answer: 0.811 h^-1

Question: What does the source list for “NHE1ct_(AVATAA) (NHE1 I680-Q815, P715A, I717A, I719A, D720A) (from UniProt P19634 680-815) (domain or fragment)”?
Answer: apparent in vitro dephosphorylation rate k (dephos) of pT779 of ERK2-phosphorylated NHE1ct variant by CN (NMR time course) [1]: 0.011 h^-1; pKd [2]: 5.62; dH [2]: -7.6 kcal/mol

Question: With “NHE1ct_(Δ92RARA) (NHE1ctΔ92 698AAA700; R698A, R700A) (from UniProt P19634 680-723) (domain or fragment)” as the substance, how does the pKd [2] read?
Answer: 7.68

Question: What about the dH [2] of the same substance?
Answer: -12.2 kcal/mol

Question: Which results are given for “NHE1ctΔ92 (NHE1 I680-S723) (from UniProt P19634 680-723) (domain or fragment)”?
Answer: pKd [2]: 7.68; dH [2]: -8.5 kcal/mol

Question: “NHE1ctΔ92 (PVIVIT) (from UniProt P19634 680-723) (domain or fragment)” was tested. Which pKd [2] did it give?
Answer: 8.40

Question: What about the dH [2] of the same substance?
Answer: -9 kcal/mol

Question: What does the source list for “PxIxIT peptide (NHE1 E709-P727) (from UniProt P19634 709-727)”?
Answer: pKd [2]: 5.19; dH [2]: -2.9 kcal/mol
